Test results: PMC6002036, “Characterization of a non-nudix pyrophosphatase points to interplay between flavin and NAD(H) homeostasis in Saccharomyces cerevisiae” (PLoS ONE, 2018)

Legend:
[1] = substrate: Cc1cc2nc3c(=O)[nH]c(=O)nc-3n(C[C@H](O)[C@H](O)[C@H](O)COP(=O)(O)OP(=O)(O)OC[C@H]3O[C@@H](n4cnc5c(N)ncnc54)[C@H](O)[C@@H]3O)c2cc1C; assay: HPLC fluorescence of FMN product, Michaelis-Menten fit; format: biochemical, Saccharomyces cerevisiae; conditions: 4 mM CoCl2, 200 mM KCl, 100 mM Hepes-KOH pH 7.0, 30 °C
From the text: HPLC fluorescence of FMN product, Michaelis-Menten fit on Fpy1p

[2] = target: the molecule itself; assay: SEC; gel filtration on Superdex 200 10/300 in 50 mM potassium phosphate pH 7.5, 150 mM KCl, 100 mM L-arginine HCl, 0.1% Tween-20, 1 mM THP; calibrated with standards of 12.4-200 kDa; Fpy1p detected in fractions by enzymatic assay

B1: Fpy1p (protein encoded by YMR178w), recombinant with V5 epitope and 6xHis tag (enzyme, S. cerevisiae, UniProt Q03219 1-274, looked up)
chain: MVKVTAACIIIGDEVLNGKVVDTNSTFFAKYCFDHGIQLKEIATIGDDETQIVDTVRRLVKNYDFIISTGGIGPTHDDITYECMAKSFNLPCELDEECKERMRHKSDPEARLDADALKAHYQMATMPKGTNVKNYYVCDDLWVPICSISHKMYILPGIPQLFARMLKAFTPTLKKIYNLDKDPREYVRYFVRTHLTESQISKELKLIQDESTKVSEAIKIGSYPHFGMGFNTVSILGEKKDDSYLKSIVNRVVNNLEGEVISSELENKFSNQES
notes: Fpy1p, the pyrophosphatase encoded by ORF YMR178w of S. cerevisiae; whole open reading frame without the stop codon, amplified from the start codon; also called YMR178wp; source: S. cerevisiae strain Y258 (pYES-DEST52, galactose induction), purified (two-step IMAC: Cu2+ then Ni2+)
Km [1]: 16.1 ± 2.1 µM | kcat [1]: 0.38 s⁻¹ | kcat/Km [1]: 23000 M⁻¹ s⁻¹ | stoichiometry N [2]: 3
